Measured values published in paper PMC5770437, “The crystal structure of D-xylonate dehydratase reveals functional features of enzymes from the Ilv/ED dehydratase family” (Scientific Reports, 2018).

What was measured:
[1] = molecular target: D-xylonate dehydratase from Caulobacter crescentus (Caulobacter crescentus); assay: crystal structure; holo-CcXyDHT at 2.7 Å, molecular replacement with 5J84, space group C2, a tetramer in the asymmetric unit; packing analysed with the PISA server
[2] = molecular target: T1, D-xylonate dehydratase from Caulobacter crescentus (CcXyDHT) (Caulobacter vibrioides, UniProt Q9A9Z2); assay: X-ray crystal structure, […] Å; assay type: binding; details: holo form with Mg2+; Fe1 bound by Cys60 and Cys128, Fe2 by Cys200; active site
T1 construct: gene xylD; N-terminal Strep-tag II kept; expressed in E. coli; homotetramer; residues 1-591 (Asn3-His591 modelled); Lys130 carbamylated

[3] = molecular target: the molecule itself; assay: crystal structure; re-refinement with PHENIX of the deposited apo So6PGDHT model (PDB 2GP4, 2.5 Å)

T1 sequence (Q9A9Z2 6-595): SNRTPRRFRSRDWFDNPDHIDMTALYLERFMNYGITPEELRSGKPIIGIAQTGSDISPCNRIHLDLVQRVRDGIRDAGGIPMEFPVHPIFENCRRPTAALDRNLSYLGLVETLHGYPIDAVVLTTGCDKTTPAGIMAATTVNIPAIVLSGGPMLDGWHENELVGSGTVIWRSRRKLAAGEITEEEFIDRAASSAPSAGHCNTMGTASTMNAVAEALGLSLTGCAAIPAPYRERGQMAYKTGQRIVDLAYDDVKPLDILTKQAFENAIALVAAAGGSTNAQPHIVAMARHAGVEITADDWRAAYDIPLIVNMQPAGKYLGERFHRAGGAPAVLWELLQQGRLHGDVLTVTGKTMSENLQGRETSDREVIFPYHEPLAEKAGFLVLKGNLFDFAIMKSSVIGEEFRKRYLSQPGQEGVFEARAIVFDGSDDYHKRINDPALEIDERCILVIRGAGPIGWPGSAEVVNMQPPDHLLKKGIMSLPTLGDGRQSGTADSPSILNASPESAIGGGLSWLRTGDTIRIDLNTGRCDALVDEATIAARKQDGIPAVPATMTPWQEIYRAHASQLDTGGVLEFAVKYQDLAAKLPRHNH

With “D-xylonate dehydratase from Caulobacter crescentus (enzyme)” the stoichiometry N [1] was 4.

With `[S]1[Fe][S][Fe]1` [[2Fe-2S] cluster] the “X-ray crystal structure, 2.7 Å” value [2] was “The crystal structure of CcXyDHT suggests that the enzyme has a [2Fe-2S] cluster”.

B1: 6-phosphogluconate dehydratase from Shewanella oneidensis (enzyme)
chain: MHSVVQSVTDRIIARSKASREAYLAALNDARNHGVHRSSLSCGNLAHGFAACNPDDKNALRQLTKANIGIITAFNDMLSAHQPYETYPDLLKKACQEVGSVAQVAGGVPAMCDGVTQGQPGMELSLLSREVIAMATAVGLSHNMFDGALLLGICDKIVPGLLIGALSFGHLPMLFVPAGPMKSGIPNKEKARIRQQFAQGKVDRAQLLEAEAQSYHSAGTCTFYGTANSNQLMLEVMGLQLPGSSFVNPDDPLREALNKMAAKQVCRLTELGTQYSPIGEVVNEKSIVNGIVALLATGGSTNLTMHIVAAARAAGIIVNWDDFSELSDAVPLLARVYPNGHADINHFHAAGGMAFLIKELLDAGLLHEDVNTVAGYGLRRYTQEPKLLDGELRWVDGPTVSLDTEVLTSVATPFQNNGGLKLLKGNLGRAVIKVSAVQPQHRVVEAPAVVIDDQNKLDALFKSGALDRDCVVVVKGQGPKANGMPELHKLTPLLGSLQDKGFKVALMTDGRMSGASGKVPAAIHLTPEAIDGGLIAKVQDGDLIRVDALTGELSLLVSDTELATRTATEIDLRHSRYGMGRELFGVLRSNLSSPETGARSTSAIDELY
notes: 6-phosphogluconate dehydratase, Shewanella oneidensis, GenBank WP_011072452; apo form as in PDB 2GP4 (no [Fe-S] cluster, no Mg2+); The crystal data were deposited by others (PDB 2GP4, unpublished); also called So6PGDHT; SoPGDHT
With B1 the “stoichiometry N” value [3] was 2.
